Experimental data published in patent US20250179161A1.

Target: Amyloid Beta (Aβ) 1-42 (human)
Experiment: cell-based or functional assay

Sequence of Amyloid Beta (Aβ) 1-42 (human) (peptide, as listed by the source): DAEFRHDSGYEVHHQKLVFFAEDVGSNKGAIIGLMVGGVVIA

Avg. pg/mL Aβ1-42 left after ex vivo phagocytosis, APP/PS1 mouse brain sections with primary murine microglia, mean: 92600 pg/mL
Aβ1-42 (pg/ml) left after ex vivo phagocytosis, human AD brain sections with primary murine microglia: 185000 pg/mL
Mean (Aβ spots per neuron), isotype control at 1:50 mAb:Aβ42, soluble Aβ 1 µM, rat hippocampal neurons (Aβ spots per neuron): 58.7
Substance: human IgG isotype control antibody
